Patent publication US5844099, “Cytokine antagonists” (Regeneron Pharmaceuticals, Inc., dated 1998)
One block for each molecule: values may come before it.

Columns and labels:
CNTFRα on EW-1 cells = experiment: two site fit of CNTF binding on EW-1 cells; low affinity site
[1] = target: CNTFRα, gp130 and LIFRβ on EW-1 cells; experiment: two site fit of CNTF binding on EW-1 cells; high affinity site
human 125I-IL-6 (human) = human 125I-IL-6 (human) (UniProt P05231); experiment: dissociation of 20 pM 125I-IL-6 from 500 pM mAb B-E8 after adding 20 nM cold IL-6; precipitation with Protein G-Sepharose
recombinant human IL-6 [2] = target: T1, recombinant human IL-6 (human, UniProt P05231)
[3] = target: T2, CNTFRα:β1 (CNTFRα and gp130) on PC12D cells; experiment: Scatchard analysis of 125I-CNTF saturation binding on PC12D cells; high affinity site
T2 sequence (Q08406 whole entry, looked up): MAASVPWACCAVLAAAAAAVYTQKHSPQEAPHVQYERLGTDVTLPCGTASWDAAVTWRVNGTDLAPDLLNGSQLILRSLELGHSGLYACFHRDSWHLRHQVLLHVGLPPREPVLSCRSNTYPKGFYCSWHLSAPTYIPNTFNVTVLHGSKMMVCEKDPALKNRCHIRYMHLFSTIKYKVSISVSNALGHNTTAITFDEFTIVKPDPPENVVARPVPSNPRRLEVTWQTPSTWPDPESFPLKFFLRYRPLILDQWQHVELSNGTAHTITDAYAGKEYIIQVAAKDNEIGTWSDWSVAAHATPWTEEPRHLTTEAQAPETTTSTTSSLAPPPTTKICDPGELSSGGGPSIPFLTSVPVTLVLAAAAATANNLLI
T2 sequence (P40190 whole entry, looked up): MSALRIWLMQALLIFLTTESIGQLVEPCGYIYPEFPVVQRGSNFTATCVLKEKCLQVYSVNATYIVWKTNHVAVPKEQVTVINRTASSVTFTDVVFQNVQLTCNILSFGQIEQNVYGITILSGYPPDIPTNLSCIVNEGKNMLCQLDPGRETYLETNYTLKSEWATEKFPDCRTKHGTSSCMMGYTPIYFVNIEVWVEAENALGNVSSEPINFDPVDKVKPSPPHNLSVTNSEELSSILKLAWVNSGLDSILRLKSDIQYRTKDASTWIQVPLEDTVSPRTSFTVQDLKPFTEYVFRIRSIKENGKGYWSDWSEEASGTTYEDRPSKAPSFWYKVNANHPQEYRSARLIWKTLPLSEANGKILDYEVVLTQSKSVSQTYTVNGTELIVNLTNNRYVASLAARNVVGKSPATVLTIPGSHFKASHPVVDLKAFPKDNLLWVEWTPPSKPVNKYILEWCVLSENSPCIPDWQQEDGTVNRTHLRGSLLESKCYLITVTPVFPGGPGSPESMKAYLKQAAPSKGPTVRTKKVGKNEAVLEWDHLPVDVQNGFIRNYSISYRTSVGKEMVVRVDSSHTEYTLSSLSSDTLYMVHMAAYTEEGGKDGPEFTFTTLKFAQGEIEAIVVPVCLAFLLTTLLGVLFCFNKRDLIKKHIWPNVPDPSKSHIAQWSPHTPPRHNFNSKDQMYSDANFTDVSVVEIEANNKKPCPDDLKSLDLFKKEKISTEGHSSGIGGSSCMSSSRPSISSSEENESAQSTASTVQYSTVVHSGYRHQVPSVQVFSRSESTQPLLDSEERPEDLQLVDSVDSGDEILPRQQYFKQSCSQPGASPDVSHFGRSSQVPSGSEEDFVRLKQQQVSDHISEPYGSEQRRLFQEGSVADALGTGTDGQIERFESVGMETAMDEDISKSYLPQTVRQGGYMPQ

CNTFRα on PC12D cells = target: T3, CNTFRα on PC12D cells; experiment: Scatchard analysis of 125I-CNTF saturation binding on PC12D cells; low affinity site
T3 sequence (Q08406 23-342, looked up): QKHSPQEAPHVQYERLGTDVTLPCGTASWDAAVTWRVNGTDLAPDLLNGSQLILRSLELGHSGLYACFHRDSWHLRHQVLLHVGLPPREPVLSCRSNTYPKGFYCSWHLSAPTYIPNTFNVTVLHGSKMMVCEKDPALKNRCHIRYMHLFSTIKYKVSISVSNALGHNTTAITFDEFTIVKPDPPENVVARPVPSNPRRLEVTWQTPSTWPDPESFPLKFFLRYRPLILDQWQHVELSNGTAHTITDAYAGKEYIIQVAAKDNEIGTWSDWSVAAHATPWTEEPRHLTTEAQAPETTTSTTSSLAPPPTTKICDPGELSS

recombinant human IL-6 [4] = target: T1, recombinant human IL-6; experiment: cell-based or functional assay

Kd (CNTFRα on EW-1 cells): 1 nM
Kd [1]: 0.01 nM
Molecule: CNTF (ligand)

Kd [3]: 0.009 nM
Kd (CNTFRα on PC12D cells): 3.4 nM
B1: 125I-CNTF (ligand, UniProt P20294 1-200, looked up, species assumed)
Ciliary neurotrophic factor: MAFAEQTPLTLHRRDLCSRSIWLARKIRSDLTALMESYVKHQGLNKNINLDSVDGVPVASTDRWSEMTEAERLQENLQAYRTFQGMLTKLLEDQRVHFTPTEGDFHQAIHTLMLQVSAFAYQLEELMVLLEQKIPENEADGMPATVGDGGLFEKKLWGLKVLQELSQWTVRSIHDLRVISSHQMGISALESHYGAKDKQM
modifications: 125I label

Further lines, the molecule ahead of its results:

Molecule: anti-IL-6 monoclonal neutralizing antibody B-E8
percent of the counts remaining associated after three days (human 125I-IL-6 (human)): < 5%
IL-6-dependent proliferation of XG-1 cells (MTT assay) (fold molar excess over IL-6) (recombinant human IL-6 [2]): 10

B2: gp130-Fc homodimer (Fc fusion)
chain (part 1 of 2): ELLDPCGYISPESPVVQLHSNFTAVCVLKEKCMDYFHVNANYIVWKTNHFTIPKEQYTIINRTASSVTFTDIASLNIQLTCNILTFGQLEQNVYGITIISGLPPEKPKNLSCIVNEGKKMRCEWDGGRETHLETNFTLKSEWATHKFADCKAKRDTPTSCTVDYSTVYFVNIEVWVEAENALGKVTSDHINFDPVYKVKPNPPHNLSVINSEELSSILKLTWTNPSIKSVIILKYNIQYRTKDASTWSQIPPEDTASTRSSFTVQDLKPFTEYVFRIRCMKEDGKGYWSDWSEEASGITYEDRPSKAPSFWYKIDPSHTQGYRTVQLVWKTLPPFEANGKILDYEVTLTRWKSHLQNYTVNATKLTVNLTNDRYLATLTVRNLVGKSDAAVLTIPACDFQATHPVMDLKAFPKDNMLWVEWTTPRESVKKYILEWCVLSDKAPCITDWQQEDGTVHRTYLRGNLAESKCYLITVTPVYADGPGSPESIKAYLKQAPPSKGPTVRTKKVGKNEAVLEWDQLPVDVQNGFIRNYTIFYRTIIGNETAVNVDSSHTEYTLSSLTSDTLYMVRMAAYTDEGGKDGPEFTFTTPKFAQGEIESG
chain (part 2 of 2): HHHHHH
IL-6-dependent proliferation of XG-1 cells (recombinant human IL-6 [4]): 1000 fold molar excess over IL-6
